Data reported in patent publication US20240065978A1, “FORMULATIONS OF GLUCAGON-LIKE-PEPTIDE-2 (GLP-2) ANALOGUES” (Zealand Pharma A/S, priority 2018, published 2024).

Legend:
[1] = covalently linked oligomers by size exclusion HPLC (peak area %); assay type: physicochemical; conditions: for Covalently linked oligomers: 24 months at 2-8° C., 230 mM mannitol, 15 mM histidine, pH 7
Experimental: As shown in the examples, this amount of covalently bonded oligomers can be determined using size exclusion chromatography and determining the area under the peaks for monomeric GLP-2 analogue and oligomers respectively. This can be done using a Dionex Ultimate3000 HPLC system, giving a linear gradient, at a flow rate of 0.5 mL/min was used for the analysis. The mobile phase consisted of 0.1% TFA in 45% acetonitrile and 55% Milli-Q water. A wavelength of 215 nm was used for detection. This means that the formulations of the present invention generally contain the GLP-2 analogue at a concentration of about 2 mg/mL to about 30 mg/mL, more preferably at a concentration of about 15 mg/mL to about 25 mg/mL, and most preferably at a concentration of about 20 mg/mL. In some aspects of the present invention, it is preferred that the concentration of the GLP-2 analogue is selected so that the formulation contains 10% or less, more preferably 5% or less, more preferably 4% or less, more preferably 3% or less, and more preferably 2% or less of the GLP-2 analogue in the form of covalently bonded oligomeric products, preferably after 18 months storage. By way of illustration, the amount of covalently bonded oligomeric product may be in the range of between 2% to 5%, more preferably in the range of between 2% to 4%, and most preferably in the range of between 2% to 3%.
For detection of covalently linked oligomers, a Dionex Ultimate3000 HPLC system, giving a linear gradient, at a flow rate of 0.5 mL/min was used for the analysis. The mobile phase consisted of 0.1% TFA in 45% acetonitrile and 55% Milli-Q water. A wavelength of 215 nm was used for detection. The injection amount was 4 μg of peptide. The column used for the separation of the covalently formed peptides was a TSKgel SuperSW2000 (TSK BioScience) with a 4 μm particle size and dimensions of 300*4.6 mm. The overall runtime was 25 minutes. For chemical stability evaluation of the peptide monomer a C18 column with an acidic mobile phase and an acetonitrile gradient was used.
Stock solutions of mannitol (700 mM), L-histidine (200 mM) and ZP1848 peptide (acetate salt; 60 mg/mL) in water (Milli-Q) were prepared. Mannitol and histidine solutions were mixed in amounts appropriate to give 230 mM mannitol and 15 mM histidine. Peptide stock solution was added to a final concentration of 0.2, 2 and 20 mg/mL, respectively. Water was added up to 90% of final volume. If necessary, pH was adjusted to pH 7 using 1 M acetic acid/0.5 M L-arginine. Water was added up to the final volume.
The oligomers of ZP1848-acetate are well separated from the ZP1848-acetate monomer and are all integrated as one peak. The area percentage of the peaks was used to quantify the amount of oligomers, in particular covalently linked dimers and trimers. […]
(§1) Stock solutions of mannitol (700 mM), histidine (200 mM) and ZP1848 peptide solution (acetate salt; approx. 50 mg/mL) in Milli-Q water were prepared. Final concentration of peptide was 20 mg/mL, mannitol 230 mM, histidine 15 mM. Peptide stock solution was added to give the desired final peptide content. Water was added up to 90% of final volume. If necessary, pH was then adjusted to the desired formulation pH using 1 M acetic acid/0.5 M L-arginine. Water was added up to the final volume. Each formulation was filled in vials. Sample containers were visually inspected for clarity and viscosity and analysed for covalently linked oligomers by SEC, and peptide monomer stability by HPLC.

[2] = visual inspection for clarity and viscosity; assay type: physicochemical; conditions: 20 mg/mL; for Visual inspection Clear and non-viscous?: mannitol 230 mM, 24 hours at room temperature
Experimental: Stock solutions of mannitol (700 mM), phosphate buffer (200 mM) and ZP1848-acetate peptide (60.2 mg/mL) in water (Milli-Q) were prepared. Water was added up to 90% of final volume. If necessary, pH was then adjusted to the desired formulation pH using 1 M acetic acid/0.5 M L-arginine. Water was added up to the final volume. Sample containers were visually inspected for clarity and viscosity after 24 hours at room temperature.
Vials were visually inspected for clarity and viscosity. The viscosity was measured using a microVISC™ viscosimeter. The hydrodynamic radius was measured using a Wyatt DynaPro II Dynamic Light Scattering (DLS) Platereader. The sample size loaded on the plates was 170 μl. […]
as §1
Stock solutions of mannitol (700 mM), histidine (200 mM), and ZP1848 peptide solution (acetate salt; approx. 50 mg/mL) in Milli-Q water were prepared. Final concentration of peptide was 20 and 2 mg/mL, mannitol 230 mM, and histidine 15 mM. Water was added up to 90% of final volume. If necessary, pH was then adjusted to the desired formulation pH (7.0) using 1 M acetic acid/0.5 M L-arginine. Water was added up to the final volume. Each formulation was filled in vials. Sample containers were visually inspected for clarity and viscosity and analysed for peptide monomer stability by HPLC.

[3] = in vivo; cited from earlier work
[4] = viscosity measured with microVISC viscosimeter; assay type: physicochemical; conditions: 20 mg/ml ZP1848-acetate, pH 7, acetate 6-15% (FIG. 2)
Experimental: In the examples below, the viscosity of the liquid formulations of the present invention is shown to be dependent on the total acetate concentration. Preferably, the formulations have a viscosity between 0.8 and 2.0 mPa/sec as measured at 25° C. Conveniently, the viscosity may be measured by using microVISC™. In parallel, the hydrodynamic radius may be measured using a Dynamic Light Scattering, DLS, Platereader (Wyatt DynaPro II). Samples were prepared having a drug substance (DS) of the GLP-2analogue containing 6% acetate and to mimic DS having 7.8-15% acetate, then acetate was added. Data from manufacturing formulations having varied the acetate concentration from 6.7-15% is shown below in FIG. 2. The effect of controlling the total acetate concentration is that the injectability of formulations of the present invention can be modulated, for example by reducing the total acetate concentration to provide a less viscous formulation that may be more easily injected.
Samples were prepared using a drug substance (DS) of the GLP-2 analogue ZP1848-acetate containing 6% acetate. […]
Vials were visually inspected for clarity and viscosity. The viscosity was measured using a microVISC™ viscosimeter. The hydrodynamic radius was measured using a Wyatt DynaPro II Dynamic Light Scattering (DLS) Platereader. […]

For “H-HGEGTFSSELATILDALAARDFIAWLIATKITDKKKKKK-NH2 [ZP1848]”, the Covalently linked oligomers ([1]; 2 mg/mL) was 1.91%, the “initial value of the amount of oligomer” value ([1]; initial, before storage) was “less than 0.1%” and the “Visual inspection Clear and non-viscous?” value ([2]; pH 6.5, phosphate 20 mM) was “No”. For the same compound, the “Visual inspection Clear and non-viscous?” value ([2]; pH 7.0, phosphate 20 mM) was “No”, the “Visual inspection Clear and non-viscous?” value ([2]; pH 7.0, phosphate 50 mM) was “No” and the “Visual inspection Clear and non-viscous?” value ([2]; pH 7.5, phosphate 20 mM) was “No”.

In the case of `CC[C@H](C)[C@H](NC(=O)[C@H](Cc1ccccc1)NC(=O)[C@H](CC(=O)O)NC(=O)[C@H](CCCNC(=N)N)NC(=O)[C@H](C)NC(=O)[C@H](C)NC(=O)[C@H](CC(C)C)NC(=O)[C@H](CC(N)=O)NC(=O)[C@H](CC(=O)O)NC(=O)[C@H](CC(C)C)NC(=O)[C@@H](NC(=O)[C@@H](NC(=O)[C@H](CC(N)=O)NC(=O)[C@H](CCSC)NC(=O)[C@H](CCC(=O)O)NC(=O)[C@H](CC(=O)O)NC(=O)[C@H](CO)NC(=O)[C@H](Cc1ccccc1)NC(=O)[C@H](CO)NC(=O)CNC(=O)[C@H](CC(=O)O)NC(=O)CNC(=O)[C@@H](N)Cc1c[nH]cn1)[C@@H](C)O)[C@@H](C)CC)C(=O)N[C@@H](CC(N)=O)C(=O)N[C@@H](Cc1c[nH]c2ccccc12)C(=O)N[C@@H](CC(C)C)C(=O)N[C@H](C(=O)N[C@@H](CCC(N)=O)C(=O)N[C@H](C(=O)N[C@@H](CCCCN)C(=O)N[C@H](C(=O)N[C@H](C(=O)N[C@@H](CC(=O)O)C(=O)O)[C@@H](C)O)[C@@H](C)CC)[C@@H](C)O)[C@@H](C)CC` [teduglutide], the half-life [3] is listed as “about two”.

With “(H-HGEGTFSSELATILDALAARDFIAWLIATKITDKKKKKK-NH2), x(CH3COOH) (also: acetate salt) [ZP1848-acetate]” the Covalently linked oligomers ([1]; 0.2 mg/mL) was 2.60%, the “formation of covalent oligomers, increase per week” value ([1]; 2 mg/mL, 3 weeks at 40° C.) was 0.27% and the “formation of covalent oligomers” value ([1]; 2 mg/mL, after 3 weeks at 40° C.) was 1.2%. For the same compound, the “formation of covalent oligomers, increase per week” value ([1]; 20 mg/mL, 3 weeks at 40° C.) was 0.21%, the Covalently linked oligomers ([1]; 20 mg/mL) was 1.35% and the “formation of covalent oligomers” value ([1]; 20 mg/mL, after 3 weeks at 40° C.) was 0.9%. For the same compound, the “concentration dependence for oligomer formation” value ([1]; long term storage at 2-8° C.) was “inversely dependent on increasing concentration of the GLP-2 analogue”, the “formation of covalent oligomers” value ([1]; sorbitol, 3 weeks at 40° C.) was 1.1% and the Visual inspection ([2]; pH 6.5-7.5, 20-50 mM phosphate buffer, 24 hrs at room temperature) was “turbid and/or highly viscous”. For the same compound, the “viscosity as a function of acetate concentration” value [4] was “increases in a non-linear manner at higher acetate concentration”.
